Test results: patent publication US20160046721A1 (BEIJING SHENOGEN PHARMA GROUP, published 2016)
Several values for one entry are separate records, joined by “and”; a condition that tells them apart may be missing. Identical values can stand only once.

T1: GV27 peptide (ER-α36 c-terminal 27 aa) (human)
T1 construct: also called 27 aa peptide (F domain); 27-amino acid peptide derived from the F domain of ER-α36
T1 peptide: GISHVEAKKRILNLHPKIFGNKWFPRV

T2: biotinylated GV27 peptide (human, biotinylated (site not stated))
T2 construct: also called antigen (biotinylated GV27 peptide)
T2 peptide: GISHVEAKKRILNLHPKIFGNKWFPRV

T3: Fc-LBD (fusion protein of Fc and ER-α36 ligand binding domain including the C-terminal 27 amino acids) (human)
T3 construct: Expressed in E. coli BL21 (DE3); No linker is described; also called Fc-ER-α36 LBD; not shown: Fc fused to the N terminal of the LBD
T3 chain: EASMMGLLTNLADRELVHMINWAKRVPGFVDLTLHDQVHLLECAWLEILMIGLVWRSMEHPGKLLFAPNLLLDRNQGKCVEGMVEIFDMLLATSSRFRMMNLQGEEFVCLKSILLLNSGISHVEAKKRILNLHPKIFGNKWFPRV

T4: Fc-LBD-D27 (Fc-LBD with the C-terminal 27 amino acids deleted) (human, UniProt P03372 339-456)
T4 construct: also called Fc-LBD with 27 amino acids deleted; not shown: Fc
T4 chain: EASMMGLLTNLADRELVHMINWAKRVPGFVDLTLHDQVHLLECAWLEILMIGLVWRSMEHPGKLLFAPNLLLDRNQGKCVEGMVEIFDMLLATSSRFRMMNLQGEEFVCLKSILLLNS

T5: Fc-ER66 (fusion protein of Fc and ER-α66 ligand binding domain) (human, UniProt P03372 302-595, limits assumed)
T5 construct: also called Fc-ER-α66 protein; not shown: Fc
T5 sequence (looked up): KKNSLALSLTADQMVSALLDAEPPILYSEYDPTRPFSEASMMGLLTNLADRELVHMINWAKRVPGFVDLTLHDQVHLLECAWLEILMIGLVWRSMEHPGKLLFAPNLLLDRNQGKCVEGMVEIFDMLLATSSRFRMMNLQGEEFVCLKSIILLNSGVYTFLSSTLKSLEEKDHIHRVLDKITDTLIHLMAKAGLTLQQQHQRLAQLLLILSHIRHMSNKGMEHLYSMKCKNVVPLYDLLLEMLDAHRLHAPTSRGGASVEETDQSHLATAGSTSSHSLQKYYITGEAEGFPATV


How the values were obtained:
[1] = molecular target: T1, GV27 peptide (ER-α36 c-terminal 27 aa); test: Biacore; table head says human ER-α36, analyte taken as the GV27 peptide of Example 5
[2] = molecular target: T1, GV27 peptide (ER-α36 c-terminal 27 aa); test: ELISA on the coated 27-aa peptide, antibody in 5-fold dilutions from 10 ug/ml
[3] = molecular target: T1, GV27 peptide (ER-α36 c-terminal 27 aa); test: as above
[4] = molecular target: T2, biotinylated GV27 peptide; test: competition ELISA: plate coated with SNGhB1 (1 µg/ml), biotinylated GV27 added together with the soluble antibody, streptavidin-HRP; the sheet labels the soluble antibody SNGhB1, the legend paragraph 64 and paragraph 314 to paragraph 316 name SNGmB1
Protocol: (§1) The antigen (biotinylated GV27 peptide) was added along with different amount of the competing mouse antibody, the ELISA plates were then allowed to incubate for equilibrium before wash. Streptavidin-HRP (Sigma, S2438, 1:5000) and TMB substrate (Biopanda, China) were added and OD450 was measured on a plate reader. IgG were tested in parallel as control antibody.

[5] = molecular target: T2, biotinylated GV27 peptide; test: competition ELISA: plate coated with humanized SNGmB1 ('hzdSNGmB1', 1 µg/ml), biotinylated GV27 added together with soluble SNGmB1, streptavidin-HRP
Protocol: as §1

[6] = molecular target: T3, Fc-LBD (fusion protein of Fc and ER-α36 …); test: ELISA, plate coated with Fc-LBD at 1 ug/ml, SNGmB1 in 5-fold dilutions from 10 ug/ml, HRP anti-mouse IgG Fc
Protocol: (§2) Five different proteins were used to coat the assay plate at 1 μg/ml.

[7] = molecular target: T1, GV27 peptide (ER-α36 c-terminal 27 aa); test: ELISA, plate coated with the 27-aa peptide at 1 ug/ml, SNGmB1 in 5-fold dilutions from 10 ug/ml, HRP anti-mouse IgG Fc
Protocol: as §2

[8] = molecular target: T1, GV27 peptide (ER-α36 c-terminal 27 aa); test: Biacore, antibody captured on anti-mouse Fc, GV27 injected
Protocol: A chip coated with the IgG but without the test antibody was used as a control.
Antibody was captured on anti-mouse/human FC IgG coated surface and peptide was injected over the surface. Empty FC1 was used as a reference channel. The chip surface was regenerated with Gly 1.5.
A Series S CM5 sensor chip (9000RU) (BIACORE) was activated in the FC 2, FC 3 and FC 4 chips by 7-min injection (10 μl/min) of freshly prepared mixture with equal volume of 50 mM NHS and 200 mM EDC. […] Active coupling sites were blocked with 7 min injection of 1M ethanolamine at 10 μl/min. Each antibody was captured over the chip surfaces respectively (FC2, FC3 and FC4, FC1 as a reference cell) and the captured signal was around 500 RU. […] The sensor surfaces were regenerated by injecting regeneration buffer (10 mM glycine buffer with pH 1.5) for 90 s. As a control, GV27 was also injected in different concentrations over the surfaces of FC without captured antibodies.

[9] = molecular target: T2, biotinylated GV27 peptide; test: competition ELISA: plate coated with hybridoma SNGmB1 (1 µg/ml), biotinylated GV27 added together with soluble SNGmB1, streptavidin-HRP
Protocol: as §1

[10] = molecular target: T4, Fc-LBD-D27 (Fc-LBD with the C-terminal …); test: ELISA, plate coated with Fc-LBD-D27 at 1 ug/ml, HRP anti-mouse IgG Fc
Protocol: as §2

[11] = molecular target: T5, Fc-ER66 (fusion protein of Fc and …); test: ELISA, plate coated with Fc-ER66 at 1 ug/ml, HRP anti-mouse IgG Fc
Protocol: as §2

Kd [1] [nM] | koff [1] | kon [1] | Binder | also measured
0.1 | 0.000356 s⁻¹ | 3.54e+06 M⁻¹ s⁻¹ | SNGHZD (C3L + C5H) (antibody, human IgG1, kappa, V domains shown, Humanized antibody, human IgG1/kappa; also called humanized SNGmB1 variant C3L + C5H) VH: QVQLVQSGAEVKKPGASVKVSCKASGYTFTSHNMHWVRQAPGQGLEWIGAIHPVNGDTAYNQKFKGKATLTVDKSTSTAYLELSSLRSEDTAVYYCAREGYGSVDYWGQGTLVTVSS VL: ETTVTQSPAFMSATPGDKVNISCITSTDIDDDMNWYQQKPGEAPILIISEGNTLRPGIPPRFSGSGYGTDFTLTINNIESEDAAYYFCLQSDNLPLTFGQGTKLEIKR | 
0.271 | 0.00036 s⁻¹ | 1.33e+06 M⁻¹ s⁻¹ | SNGHZD (C3L + C6H) (antibody, human IgG1, kappa, V domains shown, Humanized antibody, human IgG1/kappa; also called humanized SNGmB1 variant C3L + C6H) VH: QVQLVQSGAEVKKPGASVKVSCKASGYTFTSHNMHWVRQAPGQGLEWIGAIHPVNGDTAYNQKFKGKATLTVDKSTSTAYMELSSLRSEDTAVYYCAREGYGSVDYWGQGTLVTVSS VL: ETTVTQSPAFMSATPGDKVNISCITSTDIDDDMNWYQQKPGEAPILIISEGNTLRPGIPPRFSGSGYGTDFTLTINNIESEDAAYYFCLQSDNLPLTFGQGTKLEIKR | 
0.163 | 0.000283 s⁻¹ | 1.74e+06 M⁻¹ s⁻¹ | SNGhB1 chimeric antibody (antibody, human IgG1, kappa, Chimeric antibody: mouse V regions with human kappa and IgG1 constant regions; also called chimeric SNGmB1; SNGhB1(20111118)) light: ETTVTQSPASLSMTIGEKVTIRCITSTDIDDDMNWYRKKPGQPPKLLISEGNTLRPGVPSRFSSSGYGTDFVFTIENMLSEDVADYYCLQSDNLPLTFGAGTKLELKRTVAAPSVFIFPPSDEQLKSGTASVVCLLNNFYPREAKVQWKVDNALQSGNSQESVTEQDSKDSTYSLSSTLTLSKADYEKHKVYACEVTHQGLSSPVTKSFNRGEC heavy: not shown | IC50 (read off the curve) [4]: ~0.5 mg/L
 | 0.000129 s⁻¹ and 0.000319 s⁻¹ | 2.12e+06 M⁻¹ s⁻¹ and 1.76e+06 M⁻¹ s⁻¹ | SNGmB1 antibody (antibody, mouse IgG2b, kappa, Mouse monoclonal antibody from a hybridoma, mIgG2b; Several lots were tested; also called HBD-B1; hybridoma derived SNGmB1) light: ETTVTQSPASLSMTIGEKVTIRCITSTDIDDDMNWYRKKPGQPPKLLISEGNTLRPGVPSRFSSSGYGTDFVFTIENMLSEDVADYYCLQSDNLPLTFGAGTKLELKRADAAPTVSIFPPSSEQLTSGGASVVCFLNNFYPKDINVKWKIDGSERQNGVLNSWTDQDSKDSTYSMSSTLTLTKDEYERHNSYTCEATHKTSTSPIVKSFNRNEC heavy: QAYLQQSGAELVRPGASVKMSCKASGYTFTSHNMHWIKQTPRQGLEWIGAIHPVNGDTAYNQKFKGKATLTVDKSSSTAYLQLSSLTSEESAVYFCAREGYGSVDYWGQGTTLTVSSAKTTPPSVYPLAPGCGDTTGSSVTLGCLVKGYFPESVTVTWNSGSLSSSVHTFPALLQSGLYTMSSSVTVPSSTWPSQTVTCSVAHPASSTTVDKKLEPSGPISTINPCPPCKECHKCPAPNLEGGPSVFIFPPNIKDVLMISLTPKVTCVVVDVSEDDPDVQISWFVNNVEVHTAQTQTHREDYNSTIRVVSTLPIQHQDWMSGKEFKCKVNNKDLPSPIERTISKIKGLVRAPQVYILPPPAEQLSRKDVSLTCLVVGFNPGDISVEWTSNGHTEENYKDTAPVLDSDGSYFIYSKLNMKTSKWEKTDSFSCNVRHEGLKNYYLKKTISRSPGK | IC50 (read off the curve) [5]: ~0.5 mg/L; EC50 (read off the curve) [6]: ~0.05 mg/L; EC50 (read off the curve) [7]: ~0.6 mg/L; Kd [8]: ~0.1 nM; IC50 (read off the curve) [9]: ~0.5 mg/L; binding result [10]: no binding (tested: 10 ug/ml); binding result [11]: no binding (tested: 10 ug/ml)

The next lines start with the binder.

Binder | Kd [1] [nM] | koff [1] | kon [1] | also measured
SNGHZD (C1L + C5H) (antibody, human IgG1, kappa, V domains shown, Humanized antibody, human IgG1/kappa, expressed in 293E6 cells; also called humanized SNGmB1 variant C1L + C5H) VH: QVQLVQSGAEVKKPGASVKVSCKASGYTFTSHNMHWVRQAPGQGLEWIGAIHPVNGDTAYNQKFKGKATLTVDKSTSTAYLELSSLRSEDTAVYYCAREGYGSVDYWGQGTLVTVSS VL: ETTVTQSPAFMSATPGDKVNISCITSTDIDDDMNWYQQKPGEAPILIISEGNTLRPGIPPRFSSSGYGTDFTLTINNIESEDAAYYFCLQSDNLPLTFGQGTKLEIKR | 0.164 | 0.000122 s⁻¹ | 744000 M⁻¹ s⁻¹ | 
SNGHZD (C2L + C5H) (antibody, human IgG1, kappa, V domains shown, Humanized antibody, human IgG1/kappa; also called humanized SNGmB1 variant C2L + C5H) VH: QVQLVQSGAEVKKPGASVKVSCKASGYTFTSHNMHWVRQAPGQGLEWIGAIHPVNGDTAYNQKFKGKATLTVDKSTSTAYLELSSLRSEDTAVYYCAREGYGSVDYWGQGTLVTVSS VL: ETTVTQSPAFMSATPGDKVNISCITSTDIDDDMNWYQQKPGEAAILIISEGNTLRPGIPPRFSSSGYGTDFTLTINNIESEDAAYYFCLQSDNLPLTFGQGTKLEIKR | 0.13 | 0.000488 s⁻¹ | 3.46e+06 M⁻¹ s⁻¹ | EC50 (read off the curve) [2]: ~0.04 mg/L
SNGHZD (C2L + C6H) (antibody, human IgG1, kappa, V domains shown, Humanized antibody, human IgG1/kappa; also called humanized SNGmB1 variant C2L + C6H) VH: QVQLVQSGAEVKKPGASVKVSCKASGYTFTSHNMHWVRQAPGQGLEWIGAIHPVNGDTAYNQKFKGKATLTVDKSTSTAYMELSSLRSEDTAVYYCAREGYGSVDYWGQGTLVTVSS VL: ETTVTQSPAFMSATPGDKVNISCITSTDIDDDMNWYQQKPGEAAILIISEGNTLRPGIPPRFSSSGYGTDFTLTINNIESEDAAYYFCLQSDNLPLTFGQGTKLEIKR | 0.31 | 0.000398 s⁻¹ | 1.28e+06 M⁻¹ s⁻¹ | 
SNGHZD (C1L + C6H) (antibody, human IgG1, kappa, V domains shown, Humanized antibody, human IgG1/kappa; also called humanized SNGmB1 variant C1L + C6H) VH: QVQLVQSGAEVKKPGASVKVSCKASGYTFTSHNMHWVRQAPGQGLEWIGAIHPVNGDTAYNQKFKGKATLTVDKSTSTAYMELSSLRSEDTAVYYCAREGYGSVDYWGQGTLVTVSS VL: ETTVTQSPAFMSATPGDKVNISCITSTDIDDDMNWYQQKPGEAPILIISEGNTLRPGIPPRFSSSGYGTDFTLTINNIESEDAAYYFCLQSDNLPLTFGQGTKLEIKR | 0.105 | 0.000302 s⁻¹ | 2.89e+06 M⁻¹ s⁻¹ | EC50 (read off the curve) [3]: ~0.05 mg/L
